From article PMC2111966

Target: Acanthamoeba actin (Acanthamoeba)
Assay: co-sedimentation

**Q.** How did the percent of soluble G-actin converted into an insoluble form turn out when Acanthamoeba actin (natural protein) was run?
**A.** Its percent of soluble G-actin converted into an insoluble form is > 95%.
